Assay results reported in the supplement of paper PMC9170038.

System: MS2 coat protein
Test: apparent KD of MS2 coat protein; designed switch direction (-1 OFF switch, 1 ON switch): -1; higher = weaker reporter binding
Summary of the method: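 Designed RNA switches sharing common flanks were transcribed on Illumina chips by stalled E. coli RNA polymerase. They were titrated with SNAP-549-labelled MS2 coat protein, from 0.7 or 1.5 nM doubling to 3 µM, in Tris-HCl pH 7.5 buffer with KCl, MgCl2, BSA, DTT, tRNA and Tween-20. Titrations ran without input, with 200 uM small-molecule ligand, or with an oligonucleotide input. The apparent KD of each design is the median over its clusters, after curve-fitting of normalised cluster fluorescence.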

[1] = input ligand: microRNA oligo, concentration not stated
[2] = Eterna round: R95, input ligand: microRNA oligo, concentration not stated
[3] = Eterna round: R95, input ligand: FMN 200 uM
[4] = Eterna round: R95, input ligand: none

Sequence | apparent KD of MS2 coat protein (input ligand: FMN 200 uM) | apparent KD of MS2 coat protein (input ligand: none) | apparent KD of MS2 coat protein [1] | apparent KD of MS2 coat protein [2] | apparent KD of MS2 coat protein [3] | apparent KD of MS2 coat protein [4]
GCACUGCGAGGAUAUACAUGAGGAUCACCCAUGUGUCGGCAGCCACGGUAGCACGAGUGUAGAAGGCGCGUUAG [EX3 #45] (Eterna round: R97, puzzle: Exclusion 3) | 146 nM | 31.2 nM | – | – | – | –
GCAGCAUAGUCGGAAUACGACAUACAUGAGGAUCACCCAUGUCAGGAUAUGGUCUGGAUUACAGGCCAGAAGGGACAAAGCUGC [Eli exng3 - 007] (Eterna round: R96, puzzle: Exclusion NG 3) | 24.8 nM | 20.1 nM | 17.1 nM | – | – | –
GCAGCAUAUGUAGGAUAUCUGCACGAUUAGUGCAGAGAAGGACAUGAGGAUCACCCAUGUAAUUAAGAUCAAUUAUUAAGCUGC [ENG1/4-A1] (Eterna round: R96, puzzle: Exclusion NG 1) | 33.3 nM | 22.8 nM | 15.6 nM | – | – | –
GCAGCGUAUGUAGGAUAUCGGUCAGUUUCUGAUCGAGAAGGACAUGAGGAUCACCCAUGUAUAUUCCGUCGUGAGACGGGCUGC [JL ENG1 3.69] (Eterna round: R96, puzzle: Exclusion NG 1) | 23.6 nM | 18.4 nM | 14.3 nM | – | – | –
GCAGGAUAAGUGAGGAUAUACCUCUGGAUACAGAGGUAGAAGGCACAUGAGGAUCACCCAUGUCUAUAACCUGC [Fiskers BMX 4 - 79] (puzzle: Brourd's mod of Exclusion 4) | – | – | – | 12.5 nM | – | –
GCAGGUUAAGUCAGGAUAUACCUAUGGAUACAUAGGUAGAAGGGACAUGAGGAUCACCCAUGUGACUCACCUGC [Fiskers BMX 4 - 59] (puzzle: Brourd's mod of Exclusion 4) | – | – | – | 25.1 nM | – | –
GCAUGCUGAGUUAGGAUAUGCUAGCGUUGCCGCUAGCAGAAGGAACAUGAGGAUCACCCAUGUUAGCAUGCAGU [eternacac ex4r4 #2] (Eterna round: R97, puzzle: Brourd's mod of Exclusion 4) | 16 nM | 14 nM | – | – | – | –
GCAUGGAAAGUGAGGAUAUACCACUGGAUACAGUGGUAGAAGGCACAUGAGGAUCACCCAUGUUCCUACCAUGC [Fiskers BMX 4 - 39] (puzzle: Brourd's mod of Exclusion 4) | – | – | – | 15 nM | – | –
GCAUUCUGAGGAUAUACAUGAGGAUCACCCAUGUUGAGAAAUAAGAAUAAGUACUUAAGUAGAAGGCAGAGUGC [JR_Ex3_Sub074] (Eterna round: R97, puzzle: Exclusion 3) | 61.6 nM | 15.8 nM | – | – | – | –
GCCACCACAUGAGGAUCAAACAUGAGGAUCACCCAUGUAUAACAAGCUUUUUGCUCGUCUUAUAAAUAUGUGGUGGC [Electric Eye 4 - Jieux - Sensor, turn-off variant 1] (Eterna round: R97, puzzle: Sensor, turn-off variant 1) | 14 nM | 15.3 nM | – | – | – | –
GCCAGAGCAGGAUAUUCAGUAUCACACAUGAGGAUCACCCAUGUCCACGGAAACGUGGAGGGAGAAGGGCUCUGGC [Mat - Exclusion 5 - Eli mod - D96] (puzzle: Exclusion 5) | – | – | – | 126 nM | 35.6 nM | 157 nM
GCCCAGCUAGGAUAUCGCACUGCAGACAUGAGGAUCACCCAUGUGAUGAGGUCUGAAUUCCGAGAAGGAGCAUGGA [Isedzaqu] (puzzle: Exclusion 5) | – | – | – | 22.1 nM | 66.6 nM | 26.7 nM
GCCCUUAUUGUUAGGAUAUAACGGAAAUACAACCGUUAGAAGGAACAUGAGGAUCACCCAUGUGCCAUACAGCC [Eternabot (Original) Solution 39] (Eterna round: R97, puzzle: Brourd's mod of Exclusion 4) | 119 nM | 29.5 nM | – | – | – | –
GCCUCACAUGAGGAUCACCCAUGUCAGGAUAUCUAAGGCGAGGUGCAGGCACUUCGUGAGAGAAGGGACGUCAA [Ercecequ] (puzzle: Exclusion 1) | – | – | – | 18 nM | – | –
GCCUUAUCCGUCAGGAUAUACAGCCGCUCCCUGUUGUAGAAGGGACAUGAGGAUCACCCAUGUACGUACCACCC [alecazam9] (Eterna round: R97, puzzle: Brourd's mod of Exclusion 4) | 29.1 nM | 31.1 nM | – | – | – | –
GCGAAAGCAACAAGUGAAAACAUGAGGAUCACCCAUGUCCUCAUUUGCUCGUCUUAUAAGCUAUGCGAAAGCAUAGC [Sensor 3, v1 - 10] (puzzle: Sensor v3, turn-off variant 1) | – | – | – | 511 nM | 52.4 nM | 74.4 nM

Sequence | apparent KD of MS2 coat protein (input ligand: FMN 200 uM) | apparent KD of MS2 coat protein (input ligand: none) | apparent KD of MS2 coat protein [1] | apparent KD of MS2 coat protein [2] | apparent KD of MS2 coat protein [3] | apparent KD of MS2 coat protein [4]
GCGAAAGCAAGCAAGUGAAACAUGAGGAUCACCCAUGUCCUCAUUUGCUCGUCUUAUAAGCUAUGCGAAAGCAUAGC [Sensor 3, v1 - 2] (puzzle: Sensor v3, turn-off variant 1) | – | – | – | 220 nM | 13.9 nM | 10.5 nM
GCGAAAGCAAGCAAGUGAAACAUGAGGAUCACCCAUGUCCUCGUUUGCUCGUCUUAUAAGCUAUGCGAAAGCAUAGC [Sensor 3, v1 - 4] (puzzle: Sensor v3, turn-off variant 1) | – | – | – | 105 nM | 12.9 nM | 10.2 nM
GCGCAAACGCCAAAAGGCGAAACAACAUGAGGAUCACCCAUGUAGGAUAUCGAUUGCUUUGCAGUCGAGAAGGACAAAAUGCGC [JL ENG3 3.80 Mod 6] (Eterna round: R96, puzzle: Exclusion NG 3) | 11.6 nM | 15.7 nM | 10.6 nM | – | – | –
GCGCAAACGCCAAAAGGCGAAACAACAUGAGGAUCACCCAUGUAGGAUAUCGAUUGCUUUGCAGUCGAGAAGGACAUGAUGCGC [JL ENG3 3.80 Mod 2] (Eterna round: R96, puzzle: Exclusion NG 3) | 43.9 nM | 20.8 nM | 18.5 nM | – | – | –
GCGCACCUACCAAAAGGUAGGUCAACAUGAGGAUCACCCAUGUAGGAUAUCGAUUGCUUUGCAGUCGAGAAGGAUAUGAUGCGC [JL ENG3 3.80 Mod 12] (Eterna round: R96, puzzle: Exclusion NG 3) | 27.2 nM | 24 nM | 16.6 nM | – | – | –
GCGCCAUCGUGAGAUGGCGUAACUACAUGAGGAUCACCCAUGUAGGAUAUCGAUUGCUUUGCAGUCGAGAAGGGCAAGGGAUUU [JL ENG3 3.88] (Eterna round: R96, puzzle: Exclusion NG 3) | 25.8 nM | 20.4 nM | 14.7 nM | – | – | –
GCGCCAUCGUGAGAUGGCGUAAUUACAUGAGGAUCACCCAUGUAGGAUAUCGAUUGCUUUGCAGUCGAGAAGGGCGUGAUAAGU [JL ENG3 3.71] (Eterna round: R96, puzzle: Exclusion NG 3) | 86 nM | 68.9 nM | 59.5 nM | – | – | –
GCGCCAUCGUGAGAUGGCGUAAUUACAUGAGGAUCACCCAUGUAGGAUAUCGAUUGCUUUGCAGUCGAGAAGGGCGUGAUAAUU [JL ENG3 3.70] (Eterna round: R96, puzzle: Exclusion NG 3) | 77.7 nM | 75.5 nM | 52.5 nM | – | – | –
GCGCGCGUUGUGAGGAUAUCGGGCCCGAAAGGGCCCGAGAAGGCACAUGAGGAUCACCCAUGUAAGGUGUGUGU [-35.5, -34.8 kcal, A 23%, 0-6bis] (Eterna round: R97, puzzle: Brourd's mod of Exclusion 4) | 619 nM | 613 nM | – | – | – | –
GCGCGGCGUGUAGGAUAUGCGCGCGGGUCGCGCGCAGAAGGACAUGAGGAUCACCCAUGUGGCGCGCUUGGCGCGCCGCCGCGC [-48, -45 kcal and 14% A] (Eterna round: R96, puzzle: Exclusion NG 1) | 16.6 nM | 12.9 nM | 9.64 nM | – | – | –
GCGGACUCGAUCGUGAGAUCGGAGACAUGAGGAUCACCCAUGUAGGAUAUCGAUUGCUUUGCAGUCGAGAAGGGCGUGGUCCGC [JL denovo 17] (Eterna round: R96, puzzle: Exclusion NG 3) | 152 nM | 157 nM | 98.1 nM | – | – | –
GCGGAGUCAGGAUAUUGAAUUUAACGUACCAAUAAGGUACGCGAGAAGGGACAUGAGGAUCACCCAUGUACCGC [Mat - Exclusion 4 - Eli Mod - D35] (Eterna round: R97, puzzle: Exclusion 4) | 16.5 nM | 17.3 nM | – | – | – | –
GCGGAGUCAGGAUAUUGAAUUUAACGUACCAAUUAGGUACGCGAGAAGGGACAUGAGGAUCACCCAUGUACCGC [Eli x4 4.03] (Eterna round: R97, puzzle: Exclusion 4) | 11.4 nM | 15.9 nM | – | – | – | –
GCGGCGUAUGUAGGAUAUCGGUCAGUUUCUGAUCGAGAAGGACAUGAGGAUCACCCAUGUAAAUUACCGACUUUGUCGGGCCGC [JL ENG1 3.66] (Eterna round: R96, puzzle: Exclusion NG 1) | 20.4 nM | 17.7 nM | 13.5 nM | – | – | –
GCGUAGUAUGUAGGAUAUCGGUCAGUUUCUGAUCGAGAAGGACAUGAGGAUCACCCAUGUAAAACGACCGCUUUGUGGUUACGC [JL ENG1 3.58] (Eterna round: R96, puzzle: Exclusion NG 1) | 42.7 nM | 19.2 nM | 15.9 nM | – | – | –
GCUAAACAUGUAGGAUAUGCGUGGCGAAGCUAUGCAGAAGGACAUGAGGAUCACCCAUGUUUUAGCGUCUGCGUACAGAUGCGU [JL ENG1 1.43] (Eterna round: R96, puzzle: Exclusion NG 1) | 318 nM | 31.6 nM | 28 nM | – | – | –
